Measured values: PMC9027083

molecular target: recombinant MBP-EDIII of DENV2 (Dengue virus 2 (strain Thailand/16681/84)); experiment: SPR

In order of falling Kd:
1. 1A1D-2 Fab Y105R.H  203 nM
2. 1A1D-2 Fab A54E.H  41.9 nM
3. 1A1D-2 Fab A54E-Y105R double mutant  12.3 nM

In order of rising koff:
1. 1A1D-2 Fab A54E-Y105R double mutant  0.00274 s⁻¹
2. 1A1D-2 Fab A54E.H  0.00822 s⁻¹
3. 1A1D-2 Fab Y105R.H  0.0195 s⁻¹

In order of falling kon:
1. 1A1D-2 Fab A54E-Y105R double mutant  222000 M⁻¹ s⁻¹
2. 1A1D-2 Fab A54E.H  197000 M⁻¹ s⁻¹
3. 1A1D-2 Fab Y105R.H  96200 M⁻¹ s⁻¹
